The series is described as follows: yeast display, Sf9 membrane polyspecificity reagent, FACS + sequencing; frameworks hold sequencing errors. In outline:
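Sorting gates, low and high (top ~1%), were placed on anti-HA fluorescence to track expression and on streptavidin fluorescence to track reagent binding. A clone's polyreactivity label is taken from the gate it came out of. The reagent was 10% biotinylated, detergent-solubilized Sf9 membrane, applied for 1 hour at 4 °C to galactose-induced yeast display cells.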
Take “QVQLVESGGGLVQAGGSLRLSCAASGFTINFYAMGWYRQAPGKERELVAAITASGGGSTYYADSVKGRFTISRDNAKNTVYLQMNSLKPEDTAVYYCNADYTGSFYTYDYWGQGTQVTVSS”: the “polyreactivity (PSR sort gate)” value was “low polyreactivity”.
Under “QVQLVESGGGLVQAGGSLRLSCAASGFTIPVYAMGWYRQAPGKEMELVADITESGDSTYYADSVKGRFTISRDNAKNTVYLQMNSLKPEDTAVYYCAADGGWFWSLFYTFAFDYCGQGTQVTVSS” stands “low polyreactivity”.
With “QVQLVESGGGLVQAGGSLRLSCAASGFTIRNNAMGWYRQAPGKERELVAAISYSGGSTYYADSVKGRFTISRDNAKNTVYLQMNSLKPEDTAVYYCNRRRWSYLEYDYWGQGTQVTVSS” the entry was “low polyreactivity”; with “QVQLVESGGGLVQAGGSLRLSCAASGFTISANTMGCYSQAPGKERELGATISGGSSTNYADSVKGRFTISRDNAKNTVYLQMNSLKPDDTAVYYCAKDGGLRKFDYWGQGTQVTVSS”, “high polyreactivity”; with “QVQLVESGGGLVQAGGSLRLSCAASGFTISLNTMGWYRQAPGKERELVAAINSGDSTYADSVKGRFTISRDNAKNTGYFQMNSLKPEDTAVYYCNADPDWWYPYFYWGQGTQVTVSS”, “low polyreactivity”.
With “QVQLVESGGGLVQAGGSLRLSCAASGFTISRYAMGWYRQAPGKERELVASITYSGTRTYYADSVKGRFTISRDNAKNTVYLQMNSLKPEDTAVYYCAADDEYKQEAEMDSWGQGTQVTVSS” the entry was “low polyreactivity”; with “QVQLVESGGGLVQAGGSLRLSCAASGFTISYYAMGWYRQAPWKEGELVAAIRKSGATTDYADSVKGRFTISRDNAKNTVYLQMNCMKPEDTAVYYCNAKNDQRSLGFDFWRQGTQVTVSS”, “high polyreactivity”.
For “QVQLVESGGGLVQAGGSLRLSCAASGFTITHYAMGWYRQAPGKERELVAAISTSGGSTYYADSVKGRFTISRDNAKNTVYLQMNSLKPEDTAVYYCAARRDGWVQWGYYYWGQGTQVTVSS”, the “polyreactivity (PSR sort gate)” value is listed as “low polyreactivity”.
In the case of “QVQLVESGGGLVQAGGSLRLSCAASGFTITRYARGWYRQAPGKERELVAVITYSGDTYYADSVKGRFTISRDNAKNTVYLQMNSLKPEDTAVYYCAVERAYYSDTGRYGYDYWGQGTQVTVSS”, the “polyreactivity (PSR sort gate)” value is on record as “high polyreactivity”.
Under “QVQLVESGGGLVQAGGSLRLSCAASGFTITTYAMGWYRQAPGKERELVAVISVSGGRTYYADSVKGRFTISRDNAKNTVYLQMNSLKPEDTAVYYCAAEYYPGWEYGYWGQGTQVTVSS” stands “high polyreactivity”; under “QVQLVESGGGLVQAGGSLRLSCAASGFTIWPYAMGWYRQAPGKERELVAGITRNGGSTYYADSVKGRFTISRDIAKNTVYLQMNSLKPEDTAVYYCNTKYAVEFDYWGQGTQVTVSS”, “low polyreactivity”; under “QVQLVESGGGLVQAGGSLRLSCAASGFTIWYTMGSYRQAPGKEREFLAAITSGGGSTYYAESVKGRFTISRDNAKNTVYFQMNSLKPEDTAVYYCAARERSYRAYGYWRQGTQVTVSS”, “high polyreactivity”.
With “QVQLVESGGGLVQAGGSLRLSCAASGFTIYNNAMGWYRQAPGKERELVAGITSGGDSTNYADSVKGRFTISRDNAKNTVYLQMNRLKPEDTAVYYCAAEGGTNTPGVVESDYWGQGTQVTVSS” the entry was “low polyreactivity”; with “QVQLVESGGGLVQAGGSLRLSCAASGFTIYRYAMGWYRQAPGKERELVAAISSIGGSTYYADSVKGRFTISRDNSKNTVYLQMNSLKPEDTAVYYCAAAISLYSYDYWGQGTQVTVSS”, “low polyreactivity”.
Turning to “QVQLVESGGGLVQAGGSLRLSCAASGFTIYSYAMGWYRQAPGKERELVAAISSGGSTYYADSVKGRFTISRDNAKNTVYLQMNSLKPEDTAVYYCARRYQVVWYYKYDYWGQGTQVTVSS”, the “polyreactivity (PSR sort gate)” value is on record as “high polyreactivity”.
In the case of “QVQLVESGGGLVQAGGSLRLSCAASGFTKFYNAMGWYRQAPGKERELVAAITARGGGTYYADSVKGRFTFSRDNAKNTVYLLMNSLKPEDTAVYYCAKQPIIYWQSSRFDYWGQGTQVTVSS”, the “polyreactivity (PSR sort gate)” value is “low polyreactivity”.
As for “QVQLVESGGGLVQAGGSLRLSCAASGFTLADNPMGWYRQAPGKERELVAAITSGASTYYADSVKGRFTISRDNAKNTVYLQMNTLKPEDTAVYYCAALYYWRSGYDAWGQGTQVTVSS”, the “polyreactivity (PSR sort gate)” value is “low polyreactivity”.
With “QVQLVESGGGLVQAGGSLRLSCAASGFTLAFYGMGWYRQAPGKERELVAAISRSGGSTYYADSVKGRFTISRDNAKNTVYLQMNSLKPEDTAVYYCAAAFRAGAVYGYYWGQGTQVTVSS” the entry was “high polyreactivity”; with “QVQLVESGGGLVQAGGSLRLSCAASGFTLDVNAIGWYRQAPGKERELVATISWGGASTYYADSVKGRFTISRDNAKNTVYLQMNSLKPEDTAVYYFAAQYYYPDDKGGYDYWGQGTQVTVSS”, “low polyreactivity”; with “QVQLVESGGGLVQAGGSLRLSCAASGFTLDYYAMGWYRKAPGKERELVAAISFSGGSTYYADSVKGRFTISRDNAKNTVYLQMNSLKPEDTAVYFCAADPQIVWYDYWGQGTQVTVSS”, “low polyreactivity”.
Under “QVQLVESGGGLVQAGGSLRLSCAASGFTLFFHAMGWYRQAPGKERELVATISERGDSTYYADSVKGRFTISRDNAKNTVYLQMNSLKPEDTAVYYCAAVGTYSSYGYWGQGTQVTVSS” stands “high polyreactivity”; under “QVQLVESGGGLVQAGGSLRLSCAASGFTLGPYMGWYRQAPGKERELVAAISGGGGRTYYADSVKGRFTISRDNAKNTVYLQMNSLKPEDTSVYYCAAAYRSYKQFYSYGYEYWGQGTQVTVSS”, “high polyreactivity”; under “QVQLVESGGGLVQAGGSLRLSCAASGFTLIDYAMGWYRQAPGKERELVAAISGSGGRTYYADSVKGRFTISRDNAKNTVYLQMNSLKPEDTAVYYCAAGRRHVYKRRRYDYCGQGTQVTVSS”, “high polyreactivity”.
Under “QVQLVESGGGLVQAGGSLRLSCAASGFTLKYNTMGWYRQAPGKERELVAAITSSGVSTYYSDSVKGRFTISRDNAKNTVYLQMNSLKPEDTAVYYCNARERYSYWGQGTQVTVSS” stands “high polyreactivity”; under “QVQLVESGGGLVQAGGSLRLSCAASGFTLLPYAMGWYRQAPGKERELVAAISRRGVSTYYADSVKGRFTISRDNAKNTVYLQMNSLIPEDTSVYYWASRYFTGYGLRTQFYFWGQGTQVTVSS”, “high polyreactivity”; under “QVQLVESGGGLVQAGGSLRLSCAASGFTLLWNAMGWYRQAPGKERELVAAINKSGGSTYADSVKGRFTISRDNAKNTVYLQMNSLKPEDTAVYYCAAEVDYSYWPEYARKYYYWGQGTQVTVSS”, “low polyreactivity”.
As to “QVQLVESGGGLVQAGGSLRLSCAASGFTLPANGMGWYRQAPGKERQLVAAISFIAGSTYYADSVKGRFTISRDNAKNTVYLQMKSLKPEDTAVYYCATQFPPSTFYDYWGQGTQVTVSS”, the “polyreactivity (PSR sort gate)” value is “low polyreactivity”.
With “QVQLVESGGGLVQAGGSLRLSCAASGFTLPLYAMGWYRQAPGKERELVATISSGGTTYYADSVKGRFTISRDNAKNTVYLEMNCLKPEDTGVYYCAAGGTFFHRFYYYYRSDYWGQGTQVTVSS” the entry was “high polyreactivity”.
Take “QVQLVESGGGLVQAGGSLRLSCAASGFTLRRYAMGWYRQAPGKERELVATITSGGTTDYADSVKGRFTISRDNAKNTVYLQMNSLKPEDTAVYYCAAYRRGAYYYWGQGTQVTVSS”: the “polyreactivity (PSR sort gate)” value is recorded as “high polyreactivity”.
With “QVQLVESGGGLVQAGGSLRLSCAASGFTLSASAMGWYRQAPGKERELVAGITYTGGRTYYADSVKGRFTISRDNAKNTVYFQMNSLKPEVTAVYYCNKAWSGYYKYGYWGQGTQVSVSS” the entry was “low polyreactivity”.
Under “QVQLVESGGGLVQAGGSLRLSCAASGFTLSSNPMGWNRQEPGKETELVAAISFNSTSTYYADSVKGRFTISRDNAKNTVYLQMKSLNPEDTAVYYCAADVPRVQSEPEYDYWGQGTQVTVSS” stands “low polyreactivity”.
With “QVQLVESGGGLVQAGGSLRLSCAASGFTLSWYAMGWYRQAPGKERELVATISRGGITYYADSVKGRFTLSRDNANNTVYVQMNSLKPEDTAVYYCAADYRYGWYRYDYWGQGTQVTVSS” the entry was “high polyreactivity”; with “QVQLVESGGGLVQAGGSLRLSCAASGFTLTLRYAMGWYRQAPGKERELVAAISSGGRTKYADSVKGRFTISRDNAKNTVYLQMNSLKPEDTAVYYCAADLYDPYHVYGYNYWGQGTQVTVSS”, “low polyreactivity”; with “QVQLVESGGGLVQAGGSLRLSCAASGFTLTRNAMGWYRPAPGKERELVAAISWSGGTTYYADSVKGRFTISRDNAKNTVYLQMNSLKPEDTAVYYCAADSVKYGGDYWGQGTQVTVSS”, “high polyreactivity”.
As for “QVQLVESGGGLVQAGGSLRLSCAASGFTLWLYAMGWSRQAPGKERALVATISYRGDSTYYADSVKGRFTISRDNAKNTVYLQMNSLNPEDTAVYYCARRYTHTGRYYYWGQGTQVTVSS”, the “polyreactivity (PSR sort gate)” value is given as “high polyreactivity”.
Consider “QVQLVESGGGLVQAGGSLRLSCAASGFTLWLYAMGWYRQAPGKERELVASISWAGGSTYYADSVKGRFTISRDNAKNTVYLQMNSLKPEDTAVYYCAASRARTRSAYNYSGQGTQVTVSS”, for which the “polyreactivity (PSR sort gate)” value is reported as “high polyreactivity”.
Under “QVQLVESGGGLVQAGGSLRLSCAASGFTLWYNGMGWYRQAPGKERELVATISSRGGGSTYYADSVKGRFTISRDNAKNTVYLQMNSLKPEETAVYYCAADAYYLVPTEGDYWGQGTQVTVSS” stands “low polyreactivity”.
Consider “QVQLVESGGGLVQAGGSLRLSCAASGFTLYFYAMGWYRQAPGKERELVATITGSGGSTTYADSVKGRFTISRDNAKNTVYLQMNRLKPEDTAVSYCAAVRVVRASRYQTYHWQPGYCYWGQGTQVTVSS”, for which the “polyreactivity (PSR sort gate)” value is recorded as “high polyreactivity”.
Under “QVQLVESGGGLVQAGGSLRLSCAASGFTLYPYAMGWYRPAPGKERELVAAISGSGGSTYYADSVKGRFTISRDNAKNTVYLQMNSLKPEDTAVYYCAARGPQQWWWDDDYWGQGTQVTVSS” stands “high polyreactivity”.
With “QVQLVESGGGLVQAGGSLRLSCAASGFTLYSYAMGWYRQAPGKERELVAAIRRRGASTYYADSVKGRFTISRDNAKNTVYLQMNSLKPEDTAVYYCAADAKYPDDDYWGQGTQVTVSS” the entry was “high polyreactivity”.
With “QVQLVESGGGLVQAGGSLRLSCAASGFTLYSYAMGWYRQAPGKETELVAAITRSGGITYYADSVKGRFTISRDNAKNTVYLQMNSLKPEDTAVYYCAALYLATGVDKAFDSWGQGTQVTVSS” the entry was “high polyreactivity”.

The record behind these values is the nanobody polyreactivity screen of Harvey et al. (2022).
